According to patent US20190048062A1 (BRACCO SUISSE, published 2019):

Key:
Test in all cases: flow chamber, microvesicles on selectin-Fc coating
[1] = molecular target: T1, human Fc E selectin (R&D catalog number 724 ES 100) (human, UniProt P16581 22-556)
T1 construct: Bought; coated in the flow chamber at 4 µg/mL; also called Human E selectin; human E-selectin; Fc part of the bought chimera not given
T1 sequence (looked up): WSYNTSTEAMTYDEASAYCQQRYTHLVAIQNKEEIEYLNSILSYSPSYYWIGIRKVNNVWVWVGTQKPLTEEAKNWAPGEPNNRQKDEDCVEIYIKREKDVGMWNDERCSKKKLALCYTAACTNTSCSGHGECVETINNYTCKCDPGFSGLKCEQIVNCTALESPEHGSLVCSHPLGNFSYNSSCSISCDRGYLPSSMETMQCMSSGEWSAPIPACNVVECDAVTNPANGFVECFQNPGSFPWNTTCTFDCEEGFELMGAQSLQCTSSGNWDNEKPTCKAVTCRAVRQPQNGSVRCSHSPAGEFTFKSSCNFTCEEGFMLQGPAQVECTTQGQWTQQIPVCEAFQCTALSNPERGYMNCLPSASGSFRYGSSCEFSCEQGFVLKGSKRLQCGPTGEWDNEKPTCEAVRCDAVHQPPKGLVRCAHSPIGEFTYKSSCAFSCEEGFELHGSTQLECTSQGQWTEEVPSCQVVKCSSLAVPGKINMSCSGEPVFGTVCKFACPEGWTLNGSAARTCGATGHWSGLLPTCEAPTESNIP
Method: (§1) To test the effective binding, targeted microvesicles prepared as described in WO2012/020030 (Example 6) and those prepared according to the present invention (example 8) were injected in a flow chamber set up comprising a coating of mouse Fc P-Selectin (catalog number 737-PS, R&D Systems, Minneapolis, Minn., USA) or human Fc P and E selectins (R&D catalog numbers 137-PS 50 and 724 ES 100) at 4 μg/mL. Microvesicles (at equivalent number of 80×10⁶/400 μL TBS++) were injected through the flow chamber (FCS2, Bioptech, USA) in a bolus fashion and their adhesion onto the mouse P-selectin (or human P- or E-selectin) coating layer assessed over a period of 10 min at a flow rate of 1.0 mL/min (shear rate of 714 s⁻¹) in the presence of 50% (v:v) human plasma (Stehelin & Cie A G) in TBS. A quantitative analysis of microvesicles accumulation was performed by counting the number of microvesicles adhering in the observed area at 2 min intervals over the total 10 min infusion, using the image processing program Analysis FIVE (SIS, Germany). After 10 min, five pictures were taken randomly and the number of bound microvesicles was measured and expressed as the number of bound bubbles (NBB) at 10 min. Each observed area was 183×137 μm, as measured with the aid of a stage micrometer. Measurement was performed between the middle and the exit of the chamber.
(§2) Similarly, suspensions of targeted microvesicles prepared according to example 8 (Variant 1A as targeting ligand) was injected in a flow chamber as described above, and their binding activity determined according to the above procedure.

[2] = molecular target: T2, mouse Fc P-Selectin (catalog number 737-PS, R&D Systems) (mouse, UniProt Q01102 42-709)
T2 construct: Bought; coated in the flow chamber at 4 µg/mL; also called Mouse P selectin; mouse P-selectin; Fc part of the bought chimera not given
T2 sequence (looked up): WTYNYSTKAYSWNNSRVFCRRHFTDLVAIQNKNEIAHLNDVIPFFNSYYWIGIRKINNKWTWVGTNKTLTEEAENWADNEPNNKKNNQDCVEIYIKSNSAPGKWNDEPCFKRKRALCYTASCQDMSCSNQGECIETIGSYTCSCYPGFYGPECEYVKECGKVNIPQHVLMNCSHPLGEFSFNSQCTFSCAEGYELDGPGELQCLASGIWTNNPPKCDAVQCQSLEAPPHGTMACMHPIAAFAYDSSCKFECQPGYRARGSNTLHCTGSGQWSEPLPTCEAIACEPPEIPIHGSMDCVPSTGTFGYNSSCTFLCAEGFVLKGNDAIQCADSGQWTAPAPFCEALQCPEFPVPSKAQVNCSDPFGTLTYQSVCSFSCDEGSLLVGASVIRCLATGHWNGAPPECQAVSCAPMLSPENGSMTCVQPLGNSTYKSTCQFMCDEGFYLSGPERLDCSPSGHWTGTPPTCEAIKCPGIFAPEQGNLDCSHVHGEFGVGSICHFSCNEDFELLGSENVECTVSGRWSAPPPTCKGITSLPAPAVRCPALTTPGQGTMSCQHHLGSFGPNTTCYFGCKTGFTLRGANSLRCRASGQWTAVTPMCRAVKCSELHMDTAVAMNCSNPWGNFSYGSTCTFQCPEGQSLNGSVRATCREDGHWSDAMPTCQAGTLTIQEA
Method: as §1, §2

[3] = molecular target: T3, human Fc P selectin (R&D catalog number 137-PS 50) (human, UniProt P16109 42-771)
T3 construct: Bought; coated in the flow chamber at 4 µg/mL; also called Human P selectin; human P-selectin; Fc part of the bought chimera not given
T3 sequence (looked up): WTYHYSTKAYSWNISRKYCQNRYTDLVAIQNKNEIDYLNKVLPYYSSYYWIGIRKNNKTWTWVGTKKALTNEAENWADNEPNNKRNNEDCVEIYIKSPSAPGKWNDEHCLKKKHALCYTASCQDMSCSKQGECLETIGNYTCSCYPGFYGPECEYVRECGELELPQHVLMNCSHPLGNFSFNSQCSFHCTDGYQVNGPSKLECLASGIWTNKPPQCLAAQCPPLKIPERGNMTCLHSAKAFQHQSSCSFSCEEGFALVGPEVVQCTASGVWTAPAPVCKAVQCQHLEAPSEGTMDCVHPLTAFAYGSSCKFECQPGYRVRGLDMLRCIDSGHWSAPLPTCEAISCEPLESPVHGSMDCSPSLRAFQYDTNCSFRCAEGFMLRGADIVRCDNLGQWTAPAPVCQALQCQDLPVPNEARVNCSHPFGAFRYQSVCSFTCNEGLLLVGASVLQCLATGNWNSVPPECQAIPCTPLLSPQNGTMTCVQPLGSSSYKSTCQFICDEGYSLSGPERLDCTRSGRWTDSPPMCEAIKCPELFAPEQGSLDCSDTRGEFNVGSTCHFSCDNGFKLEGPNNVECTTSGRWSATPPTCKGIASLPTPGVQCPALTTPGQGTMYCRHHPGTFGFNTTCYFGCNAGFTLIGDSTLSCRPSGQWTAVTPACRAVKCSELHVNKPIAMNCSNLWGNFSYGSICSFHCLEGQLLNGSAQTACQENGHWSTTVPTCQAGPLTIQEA
Method: as §1, §2

Measured: binding result

B1: microbubble Variant 1A (gas-filled microvesicles carrying the DSPE-PEG-SH/Variant 1A-SMCC conjugate) (other)
chain: QATEYEYLDYDFLPETEPPEMLRNSTDTTPLTGPGTPESTTVEPAARPHTCPPCPLQQRRGLEAERARLAAQLDALRAEVARLARERDLYGGGGAGGGGKG
modifications: as Variant 1A (pyroglutamate N-terminus, sulfated Tyr 5, 7, 10, O-glycan on Thr16); reacted with Sulfo-SMCC and linked to DSPE-PEG2000-SH, held in the phospholipid envelope of the microvesicle
notes: many copies of the ligand on each microvesicle, so the read-out is multivalent adhesion; also called MB-PSGL-1 Variant 1A; microvesicles with Variant 1A
binds: all assays above
